Measurements reported in publication PMC12151148.

Tests used:
AGS3-L (−23–405) (mouse) = experiment: SEC-MALS; called SLS; HELEOS II (Wyatt); 100 μl of purified sample at about 10 μM
AGS3-TPR (1–405) (mouse) [1] = experiment: as above
LGN-TPR (1–409) (mouse) = experiment: as above
FL-AGS3-L-4E (mouse) = experiment: as above
FL-LGN-4E (mouse) = experiment: as above
FL-AGS3 (mouse) = experiment: ITC; 25°C; 50 mM Tris (pH 8.0), 100 mM NaCl, 1 mM EDTA; one protein (0.2 mM) injected into another (0.02 mM); one-site binding model
[2] = molecular target: FL-AGS3 + Gαi3⋅GDP (mouse | human) (UniProt P08754); experiment: as above
FL-LGN (mouse) = experiment: as above
[3] = molecular target: FL-LGN + Gαi3⋅GDP (mouse | human) (UniProt P08754); experiment: as above
AGS3-TPR (1–405) (mouse) [4] = experiment: ITC; 25°C; 50 mM Tris (pH 8.0), NaCl raised to 300 mM for AGS3-TPR or AGS3-L, 1 mM EDTA; one protein (0.2 mM) injected into another (0.02 mM); one-site binding model

Sequence of FL-LGN + Gαi3⋅GDP (mouse | human) (P08754 whole entry, looked up): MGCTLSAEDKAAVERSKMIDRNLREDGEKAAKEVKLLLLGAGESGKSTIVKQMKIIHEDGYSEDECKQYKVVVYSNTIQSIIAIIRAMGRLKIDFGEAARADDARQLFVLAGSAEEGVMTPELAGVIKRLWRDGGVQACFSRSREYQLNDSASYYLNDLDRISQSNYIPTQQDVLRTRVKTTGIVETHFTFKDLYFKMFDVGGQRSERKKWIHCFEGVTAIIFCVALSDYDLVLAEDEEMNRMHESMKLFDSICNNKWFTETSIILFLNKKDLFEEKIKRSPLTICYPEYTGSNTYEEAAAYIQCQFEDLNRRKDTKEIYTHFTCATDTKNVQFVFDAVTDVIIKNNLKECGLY
Sequence of FL-AGS3 + Gαi3⋅GDP (mouse | human) (P08754 whole entry, looked up): as above

stoichiometry N (NuMA per AGS3-L (3:3)) (AGS3-L (−23–405) (mouse))	stoichiometry N (NuMA per AGS3-TPR (1:1)) (AGS3-TPR (1–405) (mouse) [1])	stoichiometry N (NuMA per LGN-TPR (3:3)) (LGN-TPR (1–409) (mouse))	stoichiometry N (NuMA per FL-AGS3-L-4E (1:1)) (FL-AGS3-L-4E (mouse))	stoichiometry N (NuMA per FL-LGN-4E (2:2)) (FL-LGN-4E (mouse))	Kd (FL-AGS3 (mouse))	Kd [2]	Kd (FL-LGN (mouse))	Kd [3]	Kd (AGS3-TPR (1–405) (mouse) [4])	Binder
1	1	1								NuMA (1847–1914) (domain or fragment) GSPDYGNSALLSLPGYRPTTRSSARRSQAGVSSGAPPGRNSFYMGTCQDEPEQLDDWNRIAELQQRNR
			1	1	3610 nM	2280 nM	3130 nM	2240 nM		NuMA (1808–2001) (domain or fragment) KLDVEEPDSANSSFYSTRSAPASQASLRATSSTQSLARLGSPDYGNSALLSLPGYRPTTRSSARRSQAGVSSGAPPGRNSFYMGTCQDEPEQLDDWNRIAELQQRNRVCPPHLKTCYPLESRPSLSLGTITDEEMKTGDPQETLRRASMQPIQIAEGTGITTRQQRKRVSLEPHQGPGTPESKKATSCFPRPMT
									220 nM	NSFYMGTCQDEPEQLDDWNRIAELQQR (domain or fragment) [NuMA (1886–1912)]
					2270 nM	2290 nM	3920 nM	2620 nM	290 nM	WGLWGAQESRRLCCVGPDRCGQALLQIGINMMALPGGRHLDSVPLQEQR (domain or fragment) [Insc (18–66)]
